This note sets out measurements from publication doi:10.1101/431288 (bioRxiv, 2018).

This data set deals with the molecule itself. Nature of the data set: cryo-EM structure.

B1: human butyrylcholinesterase (HuBChE), native glycosylated enzyme purified from plasma (enzyme, UniProt P06276 29-602, looked up)
chain: EDDIIIATKNGKVRGMNLTVFGGTVTAFLGIPYAQPPLGRLRFKKPQSLTKWSDIWNATKYANSCCQNIDQSFPGFHGSEMWNPNTDLSEDCLYLNVWIPAPKPKNATVLIWIYGGGFQTGTSSLHVYDGKFLARVERVIVVSMNYRVGALGFLALPGNPEAPGNMGLFDQQLALQWVQKNIAAFGGNPKSVTLFGESAGAASVSLHLLSPGSHSLFTRAILQSGSFNAPWAVTSLYEARNRTLNLAKLTGCSRENETEIIKCLRNKDPQEILLNEAFVVPYGTPLSVNFGPTVDGDFLTDMPDILLELGQFKKTQILVGVNKDEGTAFLVYGAPGFSKDNNSIITRKEFQEGLKIFFPGVSEFGKESILFHYTDWVDDQRPENYREALGDVVGDYNFICPALEFTKKFSEWGNNAFFYYFEHRSSKLPWPEWMGVMHGYEIEFVFGLPLERRDNYTKAEEILSRSIVKRWANFAKYGNPNETQNNSTSWPVFKSTEQKYLTLNTESTRIMTKLRAQQCRFWTSFFPKVLEMTGNIDEAEWEWKAGFHRWNNYMMDWKNQFNDYTSKKESCVGL
notes: also called native BChE tetramer
The stoichiometry N is a count of units in the complex or per binding partner. In the case of B1, the “stoichiometry N” value is 4.
